From paper PMC3871824, “In vitro binding of Sorghum bicolor transcription factors ABI4 and ABI5 to a conserved region of a GA 2-OXIDASE promoter: possible role of this interaction in the expression of seed dormancy”

Assays:
SbABI4 (rABI4) [1] = target: T1, SbABI4 (rABI4) (Sorghum bicolor (inbred line IS9530), UniProt A0A1B6P7N1 1-257); experiment: EMSA; additional retarded complex; 25 mM Tris-HCl pH 7.4, 30 mM KCl, 3 mM MgCl2, 0.5 mM EDTA, 14 mM 2-mercaptoethanol, 1 mM DTT, 10% glycerol, 0.05% NP-40, 10 ug/ml BSA, 50 ug/ml salmon sperm DNA, 40 ng probe, 30 min, room temperature; conditions: protein: recombinant; tags: C-terminal His (pET24a); label: 5'-biotin on strand 1; blunt
T1 sequence (A0A1B6P7N1 entry or part of it): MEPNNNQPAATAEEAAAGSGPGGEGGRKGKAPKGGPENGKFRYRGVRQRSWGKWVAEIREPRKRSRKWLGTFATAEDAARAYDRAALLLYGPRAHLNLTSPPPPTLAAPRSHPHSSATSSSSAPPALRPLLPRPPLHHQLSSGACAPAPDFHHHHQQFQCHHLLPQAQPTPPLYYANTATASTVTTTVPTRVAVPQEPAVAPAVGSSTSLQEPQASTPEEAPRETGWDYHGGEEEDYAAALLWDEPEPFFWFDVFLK

SbABI5 (rABI5) [2] = target: T2, SbABI5 (rABI5) (Sorghum bicolor (inbred line IS9530), UniProt C5XSV4 1-346); experiment: EMSA; 25 mM Tris-HCl pH 7.4, 30 mM KCl, 3 mM MgCl2, 0.5 mM EDTA, 14 mM 2-mercaptoethanol, 1 mM DTT, 10% glycerol, 0.05% NP-40, 10 ug/ml BSA, 50 ug/ml salmon sperm DNA, 40 ng probe, 30 min, room temperature; conditions: protein: recombinant; tags: C-terminal His (pET24a); chain copies: 2; label: 5'-biotin on strand 1; blunt
T2 sequence: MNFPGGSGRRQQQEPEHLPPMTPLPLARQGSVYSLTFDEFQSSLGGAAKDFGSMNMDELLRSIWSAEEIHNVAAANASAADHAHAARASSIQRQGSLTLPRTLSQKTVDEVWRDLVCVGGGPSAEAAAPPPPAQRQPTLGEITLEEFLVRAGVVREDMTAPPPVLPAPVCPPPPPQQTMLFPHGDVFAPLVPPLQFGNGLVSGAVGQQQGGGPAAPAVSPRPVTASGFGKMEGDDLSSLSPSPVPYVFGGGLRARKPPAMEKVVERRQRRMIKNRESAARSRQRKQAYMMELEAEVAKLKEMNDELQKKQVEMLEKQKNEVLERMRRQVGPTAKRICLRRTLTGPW

SbABI4 (rABI4) [3] = target: T1, SbABI4 (rABI4); experiment: EMSA; five complexes; 25 mM Tris-HCl pH 7.4, 30 mM KCl, 3 mM MgCl2, 0.5 mM EDTA, 14 mM 2-mercaptoethanol, 1 mM DTT, 10% glycerol, 0.05% NP-40, 10 ug/ml BSA, 50 ug/ml salmon sperm DNA, 40 ng probe, 30 min, room temperature; conditions: protein: recombinant; tags: C-terminal His (pET24a); label: 5'-biotin on strand 1; blunt
SbABI5 (rABI5) [4] = target: T2, SbABI5 (rABI5); experiment: EMSA; four complexes; 25 mM Tris-HCl pH 7.4, 30 mM KCl, 3 mM MgCl2, 0.5 mM EDTA, 14 mM 2-mercaptoethanol, 1 mM DTT, 10% glycerol, 0.05% NP-40, 10 ug/ml BSA, 50 ug/ml salmon sperm DNA, 40 ng probe, 30 min, room temperature; conditions: protein: recombinant; tags: C-terminal His (pET24a); chain copies: 2; label: 5'-biotin on strand 1; blunt
SbABI5 (rABI5) [5] = target: T2, SbABI5 (rABI5); experiment: competition; 200-600 ng vs 40 ng N1; no effect; 25 mM Tris-HCl pH 7.4, 30 mM KCl, 3 mM MgCl2, 0.5 mM EDTA, 14 mM 2-mercaptoethanol, 1 mM DTT, 10% glycerol, 0.05% NP-40, 10 ug/ml BSA, 50 ug/ml salmon sperm DNA, 40 ng probe, 30 min, room temperature; conditions: protein: recombinant; tags: C-terminal His (pET24a); chain copies: 2; blunt
SbABI4 (rABI4) [6] = target: T1, SbABI4 (rABI4); experiment: as above; conditions: protein: recombinant; tags: C-terminal His (pET24a); blunt

B1: SbGA2ox3 probe a (intact ABRE and CE) (dsDNA)
DNA 1: GGGCGCCGTGGGAAAACTGCTATTGGCCGGCGTGCCATCGCCTCGTATCGTATGCGTCTCCCATGGAGCCATGCATGCAGCGCGGCGGGCCGACCTGCCACCGGTGGATCGCGTCCGGACACGTCGCGCCC
DNA 2: GGGCGCGACGTGTCCGGACGCGATCCACCGGTGGCAGGTCGGCCCGCCGCGCTGCATGCATGGCTCCATGGGAGACGCATACGATACGAGGCGATGGCACGCCGGCCAATAGCAGTTTTCCCACGGCGCCC
Q: Does B1 bind (SbABI4 (rABI4) [1])?
A: binds

Q: Does B1 bind (SbABI5 (rABI5) [2])?
A: binds

B2: AtEm6 promoter probe 186 bp (dsDNA)
DNA 1: AGTTAAAGAACACGCGGCGAAGAAGTACGGCCACTACCACGTTCAAAGTATACGTCAGCTAATAAAGTCAGACACGTGGCATGTCACCAAGAAAGAAGAGCATACGTATGACGTACCGATTGTCCCTGAGTCACCACGTCGAACATCCACGATGCAACACAACCAAAACGCCCTCCGGATTGA
DNA 2: TCAATCCGGAGGGCGTTTTGGTTGTGTTGCATCGTGGATGTTCGACGTGGTGACTCAGGGACAATCGGTACGTCATACGTATGCTCTTCTTTCTTGGTGACATGCCACGTGTCTGACTTTATTAGCTGACGTATACTTTGAACGTGGTAGTGGCCGTACTTCTTCGCCGCGTGTTCTTTAACT
Q: Does B2 bind (SbABI4 (rABI4) [3])?
A: binds

Q: Does B2 bind (SbABI5 (rABI5) [4])?
A: binds

B3: SbGAMyb non-specific competitor 183 bp (dsDNA)
DNA 1: TCTGGGAAGAACCAACAACCATCGGTCCGAAGTTCAAGTTCTTCTGCTGGCACACCTTGTGAGACTACTACGGTGGTTAGCCCAGAGTTTGATATGGGCCAGGAATATTGGGAAGAACAGCCTGGTTCTTTCCTCAGTGAATATGCTCATTTTAGTGGAAATTCTTTGACCGAATCCACTCCT
DNA 2: AGGAGTGGATTCGGTCAAAGAATTTCCACTAAAATGAGCATATTCACTGAGGAAAGAACCAGGCTGTTCTTCCCAATATTCCTGGCCCATATCAAACTCTGGGCTAACCACCGTAGTAGTCTCACAAGGTGTGCCAGCAGAAGAACTTGAACTTCGGACCGATGGTTGTTGGTTCTTCCCAGA
Q: Does B3 bind (SbABI5 (rABI5) [5])?
A: no binding

Q: Does B3 bind (SbABI4 (rABI4) [6])?
A: no binding
